{"source": "the supplement of paper PMC12042874", "note": "± gives the uncertainty stated by the source."}
{"assay": "amyloid nucleation score (Sup35N fusion, yeast selection) (log enrichment); library NNK3; higher = more nucleation; inactive = no reads after selection", "summary_of_the_method": "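Plasmid inserts were Illumina-sequenced at input and output from psi-negative yeast expressing Sup35N fused to peptides of 20 random codons. The yeast were induced with 100 μM copper sulfate for 24 hours and grown 7 days at 30°C on medium lacking adenine and uracil, and sequences with under 100 input reads were excluded. Nucleation score is the DiMSum log enrichment of output over input reads, centred on the mode score of non-aggregating sequences.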"}
{"substance": "GSEQSVEDGFAWMKDTYFCL", "amyloid nucleation score": "inactive"}
{"substance": "GSGCVIYIL", "amyloid nucleation score": "inactive"}
{"substance": "GSIVFGCSWASQSVCQDQWV", "amyloid nucleation score": "inactive"}
{"substance": "GSKAHNDIDRGGSWMGWNIA", "amyloid nucleation score": "inactive"}
{"substance": "GSLFVI", "amyloid nucleation score": "inactive"}
{"substance": "GSLVRV", "amyloid nucleation score": "inactive"}
{"substance": "GSMIFFSICSHFLYLLHTYT", "amyloid nucleation score": "inactive"}
{"substance": "GSMSSCLVKRLNC", "amyloid nucleation score": "inactive"}
{"substance": "GSPVRWRGPGFTSPRLTRA", "amyloid nucleation score": "0.766 ± 0.26"}
{"substance": "GSSYTGTEVVCKLDFSHVFR", "amyloid nucleation score": "0.92 ± 0.13"}
{"substance": "GSVFTRFVSREVFCWDACCR", "amyloid nucleation score": "inactive"}
{"substance": "GSVGILHFGKYHSIVYSACN", "amyloid nucleation score": "inactive"}
{"substance": "GSVRNSDKKWVPIVVYIPLQ", "amyloid nucleation score": "inactive"}
{"substance": "GSVSDGTILKLFHVSDRGTW", "amyloid nucleation score": "inactive"}
{"substance": "GSYFN", "amyloid nucleation score": "inactive"}
{"substance": "GSYLDDRGSGASIATLLVVM", "amyloid nucleation score": "inactive"}
{"substance": "GTDSFAIYSWKIRLLSERYP", "amyloid nucleation score": "inactive"}
{"substance": "GTEYLV", "amyloid nucleation score": "inactive"}
{"substance": "GTGTRSHTLA", "amyloid nucleation score": "inactive"}
{"substance": "GTLLMMVFGTVHS", "amyloid nucleation score": "inactive"}
{"substance": "GTLYAKSVRNKGSS", "amyloid nucleation score": "inactive"}
{"substance": "GTMIRQLERELSHMREVTYI", "amyloid nucleation score": "inactive"}
{"substance": "GTWSVMCSYEPMAR", "amyloid nucleation score": "inactive"}
{"substance": "GVDLDLLICGYMLWMDYCSG", "amyloid nucleation score": "inactive"}
{"substance": "GVDRRIR", "amyloid nucleation score": "inactive"}
{"substance": "GVDSARQRSDHVNRERSSGC", "amyloid nucleation score": "inactive"}
{"substance": "GVGCTKSECRSICMPKHP", "amyloid nucleation score": "inactive"}
{"substance": "GVGNWKP", "amyloid nucleation score": "inactive"}
{"substance": "GVIWSMWIASL", "amyloid nucleation score": "inactive"}
{"substance": "GVLASIKELH", "amyloid nucleation score": "inactive"}
{"substance": "GVLSLLFSYIIVYEWKEMGN", "amyloid nucleation score": "inactive"}
{"substance": "GVMGYSSYSLSAENTVYSPW", "amyloid nucleation score": "inactive"}
{"substance": "GVRLNEIGRIMIRQACGIWE", "amyloid nucleation score": "inactive"}
{"substance": "GVRNWG", "amyloid nucleation score": "inactive"}
{"substance": "GVSIGNCTMKGEVDFMVDGK", "amyloid nucleation score": "inactive"}
{"substance": "GVSILCLVLWSMWTLGGESW", "amyloid nucleation score": "inactive"}
{"substance": "GVSMERLKFDIVL", "amyloid nucleation score": "inactive"}
{"substance": "GVSVMSGQAMYVRKRSALEM", "amyloid nucleation score": "inactive"}
{"substance": "GVVKRQRLWTVGMNPKIEAW", "amyloid nucleation score": "inactive"}
{"substance": "GVVVIPS", "amyloid nucleation score": "0.933 ± 0.16"}
{"substance": "GVYMQSLLYRCFVFYNYKLD", "amyloid nucleation score": "inactive"}
{"substance": "GVYSVTCMFYKWEVGWSSSD", "amyloid nucleation score": "inactive"}
{"substance": "GVYYSCAFSTLIKGVNRSTV", "amyloid nucleation score": "inactive"}
{"substance": "GWHQVTGFMYAIVFVTART", "amyloid nucleation score": "inactive"}
{"substance": "GWNILLNLNIEYSTLYIVNL", "amyloid nucleation score": "2.44 ± 0.06"}
{"substance": "GWRCCWIIWADAVYE", "amyloid nucleation score": "3.05 ± 0.075"}
{"substance": "GWVLILKMGYFRSLWNITVL", "amyloid nucleation score": "inactive"}
{"substance": "GWWRSFPLQFKSPVYLNRLC", "amyloid nucleation score": "inactive"}
{"substance": "GYFRWSRAFQLPWNSWSEWQ", "amyloid nucleation score": "inactive"}
{"substance": "GYKGR", "amyloid nucleation score": "inactive"}
{"substance": "GYKIW", "amyloid nucleation score": "inactive"}
{"substance": "GYMSLLHSKPPFWSNP", "amyloid nucleation score": "0.465 ± 0.64"}
{"substance": "GYNCALWDVGCLHVFRPYAN", "amyloid nucleation score": "inactive"}
{"substance": "GYRKMVTLYVDDGNHVYRFL", "amyloid nucleation score": "inactive"}
{"substance": "GYRLRQTSARYIAVEWSWKC", "amyloid nucleation score": "inactive"}
{"substance": "GYSRG", "amyloid nucleation score": "inactive"}
{"substance": "GYSTRYLSV", "amyloid nucleation score": "inactive"}
{"substance": "GYTVAKVNFNGWNRL", "amyloid nucleation score": "0.453 ± 0.35"}
{"substance": "GYYPLYVTFNSMCEFNIQLQ", "amyloid nucleation score": "3.11 ± 0.051"}
{"substance": "HAEPIYFYIVRTLKDG", "amyloid nucleation score": "inactive"}
{"substance": "HAFFSADSWGNDIELFIYNG", "amyloid nucleation score": "inactive"}
{"substance": "HCCNIRRARTQF", "amyloid nucleation score": "inactive"}
{"substance": "HCFIDNKMLPYVMCYPDKKR", "amyloid nucleation score": "inactive"}
{"substance": "HCSCRNWSLMLGRFFVFVTC", "amyloid nucleation score": "inactive"}
{"substance": "HCVMNNVAWVLRYTDRRDAL", "amyloid nucleation score": "1.2 ± 0.091"}
{"substance": "HCVTLWLKSYL", "amyloid nucleation score": "inactive"}
